Earlier results on 4 substances are cited in paper PMC11698047.

Read-outs that look alike come from different tables or passages of the source.

Data set [1] addresses M-Ras (Homo sapiens) (UniProt O14807).
Data set [2] has as its target Rap2 (Homo sapiens) (UniProt P10114).
For data set [3], the target named is R-Ras (Homo sapiens) (UniProt P10301).
For data set [4], the target named is TC21 (Homo sapiens) (UniProt P62070).
In data set [5] the target is H-Ras (Homo sapiens) (UniProt P01112).
Data set [6] deals with Rap1 (Homo sapiens) (UniProt P62834).
Chain of Rap1 (Homo sapiens) (P62834 1-181): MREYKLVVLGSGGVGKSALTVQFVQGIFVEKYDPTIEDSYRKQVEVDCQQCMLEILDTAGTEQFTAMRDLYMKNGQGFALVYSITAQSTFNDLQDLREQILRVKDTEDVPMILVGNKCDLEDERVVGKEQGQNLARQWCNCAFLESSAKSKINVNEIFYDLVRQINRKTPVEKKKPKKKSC
The target of data set [7] is Ras (Homo sapiens) (UniProt P01112).
Data set [8] has the same target. This is another data set of the same source.
In data set [9] the target is H-Ras (Homo sapiens) (UniProt P01112). The source holds these as a separate data set.

Chain of Afadin RA1 (P55196 39-133): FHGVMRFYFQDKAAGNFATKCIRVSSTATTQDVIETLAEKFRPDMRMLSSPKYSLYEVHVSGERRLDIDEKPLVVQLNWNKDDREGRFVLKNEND
Chain of Afadin RA1 without N-terminal α-helix (P55196 39-133): as above
Chain of R-Ras (Homo sapiens) (P10301 1-215): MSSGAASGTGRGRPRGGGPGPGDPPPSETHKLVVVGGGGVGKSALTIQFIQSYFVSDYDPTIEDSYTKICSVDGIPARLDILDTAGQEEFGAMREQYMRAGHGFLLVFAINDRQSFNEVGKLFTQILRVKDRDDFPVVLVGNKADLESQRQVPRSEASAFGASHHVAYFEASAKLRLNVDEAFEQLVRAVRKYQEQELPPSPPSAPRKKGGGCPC
Chain of TC21 (Homo sapiens) (P62070 2-201): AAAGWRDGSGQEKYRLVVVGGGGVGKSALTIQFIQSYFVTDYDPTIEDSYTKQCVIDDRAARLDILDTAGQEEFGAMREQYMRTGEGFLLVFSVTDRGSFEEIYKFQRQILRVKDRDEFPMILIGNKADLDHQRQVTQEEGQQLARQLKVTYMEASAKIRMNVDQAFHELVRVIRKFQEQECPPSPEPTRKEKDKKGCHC
Chain of Rap2 (Homo sapiens) (P10114 1-180): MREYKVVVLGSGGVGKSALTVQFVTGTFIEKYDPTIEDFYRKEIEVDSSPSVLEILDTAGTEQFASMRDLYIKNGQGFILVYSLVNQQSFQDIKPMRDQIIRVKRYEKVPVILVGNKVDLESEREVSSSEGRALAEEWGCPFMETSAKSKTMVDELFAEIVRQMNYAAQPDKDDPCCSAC
Chain of Afadin RA2 (P55196 246-348): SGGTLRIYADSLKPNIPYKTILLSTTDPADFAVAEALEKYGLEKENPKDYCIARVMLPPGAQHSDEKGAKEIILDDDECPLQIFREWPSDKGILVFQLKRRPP
Chain of Afadin RA1 with N-terminal α-helix (P55196 1-141): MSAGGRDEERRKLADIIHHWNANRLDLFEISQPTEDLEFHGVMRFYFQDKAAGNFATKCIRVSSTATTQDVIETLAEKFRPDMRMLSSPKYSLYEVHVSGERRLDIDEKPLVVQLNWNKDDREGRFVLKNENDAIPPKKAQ

As for Afadin RA1 (from UniProt P55196), the Kd in data set [1] is 2.5 µM; in data set [2] it was 2.5 µM; in [3], 16 µM; in data set [4] it was 16 µM; in data set [5] it was 2.5 µM; in data set [6], 0.24 µM.

Turning to “Afadin RA1 with N-terminal α-helix (from UniProt P55196)”, in [7], the Kd was 4.1 µM.

Take “Afadin RA1 without N-terminal α-helix (from UniProt P55196)”: the Kd in [8] was 17.8 µM.

On to Afadin RA2 (from UniProt P55196), for which the dissociation constant Kd in data set [9] is 30 µM.
